In the supplement of paper PMC5998384:

Key:
HeLa Kyoto [1] = test: melting temperature (median over replicates), in situ; higher = more thermally stable
HeLa Kyoto [2] = test: solubility in G1/S (NP-40 vs SDS abundance) (log2 ratio); higher = more soluble; details: cell cycle stage: G1/S
HeLa Kyoto [3] = test: thermal stability score vs G1/S (z-score of summed log2 fold changes over temperatures); higher = more thermally stable than in G1/S
HeLa Kyoto [4] = test: solubility change mitosis vs G1/S (difference of NP-40 vs SDS log2 ratios) (log2 ratio difference); higher = more soluble in mitosis
[5] = cell cycle stage: early G1 (4.5 h after nocodazole release)
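For melting temperature (median over replicates), in situ in this document: HeLa Kyoto cells synchronized by double thymidine or nocodazole block, proteins quantified by TMT10plex mass spectrometry, three independent biological replicates.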
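For solubility change mitosis vs G1/S (difference of NP-40 vs SDS log2 ratios) in this document: synchronized HeLa Kyoto cells (double thymidine block for G1/S, nocodazole release for mitosis), protein amounts in NP-40 versus SDS lysates quantified by mass spectrometry, three biological replicates.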
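For solubility in G1/S (NP-40 vs SDS abundance) in this document: HeLa Kyoto cells arrested at G1/S by double thymidine block, proteins quantified by TMT10plex mass spectrometry in mild NP-40 versus SDS extracts, three biological replicates.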
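For thermal stability score vs G1/S (z-score of summed log2 fold changes over temperatures) in this document: synchronized HeLa Kyoto cells, proteins quantified by TMT10plex mass spectrometry, three biological replicates, mitosis taken 0.5 h after nocodazole release, G1/S directly after double thymidine block.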

Chain of TLK2 (chain, as listed by the source): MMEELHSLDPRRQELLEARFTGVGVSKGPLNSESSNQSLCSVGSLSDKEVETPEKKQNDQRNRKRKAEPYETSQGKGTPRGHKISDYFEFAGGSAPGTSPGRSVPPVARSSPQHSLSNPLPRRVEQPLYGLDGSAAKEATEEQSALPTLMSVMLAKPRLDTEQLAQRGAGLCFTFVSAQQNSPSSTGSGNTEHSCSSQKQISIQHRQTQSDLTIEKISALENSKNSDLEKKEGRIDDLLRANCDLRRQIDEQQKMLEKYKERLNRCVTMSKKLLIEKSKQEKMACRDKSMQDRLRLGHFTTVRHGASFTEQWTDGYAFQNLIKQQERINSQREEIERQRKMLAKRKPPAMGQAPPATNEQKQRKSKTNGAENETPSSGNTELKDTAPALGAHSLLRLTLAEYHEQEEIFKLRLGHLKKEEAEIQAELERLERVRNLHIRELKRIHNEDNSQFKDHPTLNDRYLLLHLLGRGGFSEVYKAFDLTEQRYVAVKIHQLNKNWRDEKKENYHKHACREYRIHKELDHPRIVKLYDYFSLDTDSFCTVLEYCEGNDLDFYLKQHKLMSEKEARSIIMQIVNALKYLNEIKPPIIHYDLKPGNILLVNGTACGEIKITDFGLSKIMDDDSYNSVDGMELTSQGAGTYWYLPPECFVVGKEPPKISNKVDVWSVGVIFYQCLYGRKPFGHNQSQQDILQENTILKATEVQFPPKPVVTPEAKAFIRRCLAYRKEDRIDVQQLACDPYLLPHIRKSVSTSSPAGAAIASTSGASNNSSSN

Substance	melting temperature (HeLa Kyoto [1]; cell cycle stage: G1/S) [°C]	melting temperature (HeLa Kyoto [1]; cell cycle stage: mitosis) [°C]	solubility in G1/S (log2) (HeLa Kyoto [2])	thermal stability score (HeLa Kyoto [3]; [5])	thermal stability score (HeLa Kyoto [3]; cell cycle stage: mitosis)	solubility change mitosis (log2) (HeLa Kyoto [4])
MILIPRMLLVLFLLLPILSSAKAQVNPAICRYPLGMSGGQIPDEDITASSQWSESTAAKYGRLDSEEGDGAWCPEIPVEPDDLKEFLQIDLHTLHFITLVGTQGRHAGGHGIEFAPMYKINYSRDGTRWISWRNRHGKQVLDGNSNPYDIFLKDLEPPIVARFVRFIPVTDHSMNVCMRVELYGCVWLDGLVSYNAPAGQQFVLPGGSIIYLNDSVYDGAVGYSMTEGLGQLTDGVSGLDDFTQTHEYHVWPGYDYVGWRNESATNGYIEIMFEFDRIRNFTTMKVHCNNMFAKGVKIFKEVQCYFRSEASEWEPNAISFPLVLDDVNPSARFVTVPLHHRMASAIKCQYHFADTWMMFSEITFQSDAAMYNNSEALPTSPMAPTTYDPMLKVDDSNTRILIGCLVAIIFILLAIIVIILWRQFWQKMLEKASRRMLDDEMTVSLSLPSDSSMFNNNRSSSPSEQGSNSTYDRIFPLRPDYQEPSRLIRKLPEFAPGEEESGCSGVVKPVQPSGPEGVPHYAEADIVNLQGVTGGNTYSVPAVTMDLLSGKDVAVEEFPRKLLTFKEKLGEGQFGEVHLCEVEGMEKFKDKDFALDVSANQPVLVAVKMLRADANKNARNDFLKEIKIMSRLKDPNIIHLLAVCITDDPLCMITEYMENGDLNQFLSRHEPPNSSSSDVRTVSYTNLKFMATQIASGMKYLSSLNFVHRDLATRNCLVGKNYTIKIADFGMSRNLYSGDYYRIQGRAVLPIRWMSWESILLGKFTTASDVWAFGVTLWETFTFCQEQPYSQLSDEQVIENTGEFFRDQGRQTYLPQPAICPDSVYKLMLSCWRRDTKNRPSFQEIHLLLLQQGDE [DDR2]	50.8	51	-0.114	0.527	-1.72	0.0106
MAVSVTPIRDTKWLTLEVCREFQRGTCSRPDTECKFAHPSKSCQVENGRVIACFDSLKGRCSRENCKYLHPPPHLKTQLEINGRNNLIQQKNMAMLAQQMQLANAMMPGAPLQPVPMFSVAPSLATNASAAAFNPYLGPVSPSLVPAEILPTAPMLVTGNPGVPVPAAAAAAAQKLMRTDRLEVCREYQRGNCNRGENDCRFAHPADSTMIDTNDNTVTVCMDYIKGRCSREKCKYFHPPAHLQAKIKAAQYQVNQAAAAQAAATAAAMTQSAVKSLKRPLEATFDLGIPQAVLPPLPKRPALEKTNGATAVFNTGIFQYQQALANMQLQQHTAFLPPVPMVHGATPATVSAATTSATSVPFAATATANQIPIISAEHLTSHKYVTQM [MBNL1]	52.3	52.2	0.11	-3.27	-3.37	0.353
TLK2	50.9	52.2	-0.0304	1.27	1.41	-0.141
MLLKEYRICMPLTVDEYKIGQLYMISKHSHEQSDRGEGVEVVQNEPFEDPHHGNGQFTEKRVYLNSKLPSWARAVVPKIFYVTEKAWNYYPYTITEYTCSFLPKFSIHIETKYEDNKGSNDTIFDNEAKDVEREVCFIDIACDEIPERYYKESEDPKHFKSEKTGRGQLREGWRDSHQPIMCSYKLVTVKFEVWGLQTRVEQFVHKVVRDILLIGHRQAFAWVDEWYDMTMDEVREFERATQEATNKKIGIFPPAISISSIPLLPSSVRSAPSSAPSTPLSTDAPEFLSVPKDRPRKKSAPETLTLPDPEKKATLNLPGMHSSDKPCRPKSE [PITPNC1]	51.7	51.5	-0.0542	0.0627	-1.13	-0.0509
MQALRHVVCALSGGVDSAVAALLLRRRGYQVTGVFMKNWDSLDEHGVCTADKDCEDAYRVCQILDIPFHQVSYVKEYWNDVFSDFLNEYEKGRTPNPDIVCNKHIKFSCFFHYAVDNLGADAIATGHYARTSLEDEEVFEQKHVKKPEGLFRNRFEVRNAVKLLQAADSFKDQTFFLSQVSQDALRRTIFPLGGLTKEFVKKIAAENRLHHVLQKKESMGMCFIGKRNFEHFLLQYLQPRPGHFISIEDNKVLGTHKGWFLYTLGQRANIGGLREPWYVVEKDSVKGDVFVAPRTDHPALYRDLLRTSRVHWIAEEPPAALVRDKMMECHFRFRHQMALVPCVLTLNQDGTVWVTAVQAVRALATGQFAVFYKGDECLGSGKILRLGPSAYTLQKGQRRAGMATESPSDSPEDGPGLSPLL [TRMU]	50.7	51.1	-0.242	0.5	0.388	-0.134
MKAIKKSLTEEEYLYLDFSHQTEGCIFPLHTSVTLFLLSYCDCKIFKICLVVTKEVSRDSSLLRDDLIQDVEIQIISRQELPPIVQNCCLPAVVERSDNFCRAGLAVVLRHIIQKSYEADPLKKELLELLGFKKTCLKACAEVSQWTRLCELTIPLAIENFLRESSDQPPTIPVEILQLEKKLSEPVRVHNDDKLRRQKLKQQKADGVGPPLTKGKAKSKVHTQETSEGLDSSSKSLELKVAFSKLTVQEEPATTNREPSHIRKAKASDLPPLEHVFAEGLYFTLADIVLLPCIHHFLVIISRKFSEKLVEFPLLASWYQRIQEVPGVKTAASKCGIQFLHLPKLLTTSTEQHPNLCEVPGVEEQSDPLFIGGPRPTMAKLMEKGIEVMFSPHPCPTWTLDWNVLPAAVSPKEGKMSSDRALRKQQQLNNLVYVVTNQAKPGDRIVDFCSGGGHVGIVLAHMLPSCQVTLIENKELSLIRAKKRSDELGLSNIWFIQANMEYFTGMFNIGVALHACGVATDMVIEHCIKTRASFVTCPCCYGFIQNTSKFNFPKSEQFKKTLSYKEHMILCRFADQTAVQLPPQRRLIGKQCMCLVDLDRARAAEECGYSVQVISMEPESCSPKNNMIVGVPI [GSTCD]	51.7	53.4	-0.0129	-0.282	-1.67	-0.116
MDARWWAVVVLAAFPSLGAGGETPEAPPESWTQLWFFRFVVNAAGYASFMVPGYLLVQYFRRKNYLETGRGLCFPLVKACVFGNEPKASDEVPLAPRTEAAETTPMWQALKLLFCATGLQVSYLTWGVLQERVMTRSYGATATSPGERFTDSQFLVLMNRVLALIVAGLSCVLCKQPRHGAPMYRYSFASLSNVLSSWCQYEALKFVSFPTQVLAKASKVIPVMLMGKLVSRRSYEHWEYLTATLISIGVSMFLLSSGPEPRSSPATTLSGLILLAGYIAFDSFTSNWQDALFAYKMSSVQMMFGVNFFSCLFTVGSLLEQGALLEGTRFMGRHSEFAAHALLLSICSACGQLFIFYTIGQFGAAVFTIIMTLRQAFAILLSCLLYGHTVTVVGGLGVAVVFAALLLRVYARGRLKQRGKKAVPVESPVQKV [SLC35B2]	54.9	56.3	0.112	-0.147	1.08	-0.177
MAARTVIIDHGSGFLKAGTAGWNEPQMVFPNIVNYLPCKENPGPSYARRRVSLGIDICHPDTFSYPIERGRILNWEGVQYLWSFVLENHRREQEVPPVIITETPLREPADRKKMLEILFELLHVPSVLLADQLQMSLYASGLLTGVVVDSGYGLTRVQPFHQGRPLPASGKTLEFAGQDLSAYLLKSLFKEDCDRRCLFQLETVAVTQMNKCYVPQNLGEALDFRERQQSALDESNTYQLPDGSRVELTPMQRVAPEMFFSPQVFEQPGPSIPRAIVESVESCEISLRPLLVSHVMACGGNTLYPGFTKRLFRELMGDHVSSTKATVWEGSNRNFSVWLGASVVAHLSTYQSEWMSREEYGEHMRM [ACTL8]	52.8	52.4	-0.19	-0.233	-1.1	0.0715
MAMMVFPREEKLSQDEIVLGTKAVIQGLETLRGEHRALLAPLVAPEAGEAEPGSQERCILLRRSLEAIELGLGEAQVILALSSHLGAVESEKQKLRAQVRRLVQENQWLREELAGTQQKLQRSEQAVAQLEEEKQHLLFMSQIRKLDEDASPNEEKGDVPKDTLDDLFPNEDEQSPAPSPGGGDVSGQHGGYEIPARLRTLHNLVIQYASQGRYEVAVPLCKQALEDLEKTSGHDHPDVATMLNILALVYRDQNKYKEAAHLLNDALAIREKTLGKDHPAVAATLNNLAVLYGKRGKYKEAEPLCKRALEIREKVLGKFHPDVAKQLSNLALLCQNQGKAEEVEYYYRRALEIYATRLGPDDPNVAKTKNNLASCYLKQGKYQDAETLYKEILTRAHEKEFGSVNGDNKPIWMHAEEREESKDKRRDSAPYGEYGSWYKACKVDSPTVNTTLRSLGALYRRQGKLEAAHTLEDCASRNRKQGLDPASQTKVVELLKDGSGRRGDRRSSRDMAGGAGPRSESDLEDVGPTAEWNGDGSGSLRRSGSFGKLRDALRRSSEMLVKKLQGGTPQEPPNPRMKRASSLNFLNKSVEEPTQPGGTGLSDSRTLSSSSMDLSRRSSLVG [KLC2]	50	50.1	0.526	0.627	1.01	0.0405
